Legend:
[1] = system: recombinant alpha tubulin produced in bacteria
[2] = system: tubulin purified from Spodoptera Frugiperda Sf9 cells (fully tyrosinated; used as purified tubulin or polymerised microtubules)
[3] = system: bacterially produced recombinant human tubulin alpha-1A chain
[4] = system: polymerized microtubules (MT)
[5] = system: recombinant engineered tyrosinated telokin containing the C-terminal sequence of alpha tubulin
[6] = system: 8 amino acid peptide GEEEGEEY (last C-ter alpha-tubulin 1A/1B)

Sequence of recombinant human Vasohibin-1 (VASH1) (chain, as listed by the source): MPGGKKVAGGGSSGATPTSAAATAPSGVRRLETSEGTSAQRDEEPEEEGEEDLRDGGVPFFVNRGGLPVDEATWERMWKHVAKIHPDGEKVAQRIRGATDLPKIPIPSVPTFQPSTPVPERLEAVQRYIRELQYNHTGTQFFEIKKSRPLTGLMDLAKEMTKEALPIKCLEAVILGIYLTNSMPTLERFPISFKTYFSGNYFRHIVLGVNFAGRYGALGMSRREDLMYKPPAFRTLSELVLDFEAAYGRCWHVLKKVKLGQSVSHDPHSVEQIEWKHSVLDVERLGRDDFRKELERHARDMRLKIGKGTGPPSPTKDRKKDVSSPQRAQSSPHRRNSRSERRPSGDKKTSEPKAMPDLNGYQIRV
Sequence of recombinant human Vasohibin-2 (VASH2) (chain, as listed by the source): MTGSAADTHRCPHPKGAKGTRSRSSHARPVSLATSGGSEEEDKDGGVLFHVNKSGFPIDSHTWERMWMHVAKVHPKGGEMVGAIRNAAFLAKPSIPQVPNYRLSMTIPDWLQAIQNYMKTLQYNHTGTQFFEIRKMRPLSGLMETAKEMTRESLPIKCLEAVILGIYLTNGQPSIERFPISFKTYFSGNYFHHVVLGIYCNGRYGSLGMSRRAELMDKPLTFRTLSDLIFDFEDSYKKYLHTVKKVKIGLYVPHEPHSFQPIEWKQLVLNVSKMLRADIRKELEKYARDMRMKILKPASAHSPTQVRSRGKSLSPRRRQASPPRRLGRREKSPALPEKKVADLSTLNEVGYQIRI
Sequence of recombinant engineered tyrosinated telokin containing the C-terminal sequence of alpha tubulin (chain, as listed by the source, change not shown): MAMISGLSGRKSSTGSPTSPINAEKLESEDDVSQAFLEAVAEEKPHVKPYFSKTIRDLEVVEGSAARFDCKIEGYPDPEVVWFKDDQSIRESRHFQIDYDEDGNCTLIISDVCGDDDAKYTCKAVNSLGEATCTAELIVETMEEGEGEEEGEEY

Substance	detyrosination [1]	in vitro detyrosination assay (TCPase activity, immunoblot) [2]	free tyrosine release (tyrosinase colorimetric assay, OD305) [3]	detyrosination [4]	detyrosination activity [5]	detyrosination (tubulin dimers (TD))	detyrosination of the peptide (dot blot) [6]
recombinant human Vasohibin-2 (VASH2)	Recombinant human VASH2 produced in bacteria detyrosinates polymerized microtubules (MT), tubulin dimers (TD) and recombinant alpha tubulin	VASH2 acted as an autonomous enzyme that did not require the small vasohibin binding protein as a chaperone to enzymatically be active	Release of tyrosine by VASH2 could be observed (Sample D-FIG. 16.)	Recombinant human VASH2 produced in bacteria detyrosinates polymerized microtubules (MT), tubulin dimers (TD) and recombinant alpha tubulin	recombinant VASH2 protein showed detyrosination activity on polymerized microtubule, tubulin dimers, recombinant alpha tubulin, engineered Telokin protein containing C-terminal sequence of alpha tubulin and on synthetic peptides	Recombinant human VASH2 produced in bacteria detyrosinates polymerized microtubules (MT), tubulin dimers (TD) and recombinant alpha tubulin	Recombinant human VASH2 and catalytically dead (VASH2D) produced in bacteria detyrosinates a 8 amino acid peptide consisting of GEEEGEEY
recombinant human Vasohibin-1 (VASH1)	almost inactive on recombinant alpha tubulin produced in bacteria			VASH1 was much less effective on microtubules and tubulin dimers		VASH1 was much less effective on microtubules and tubulin dimers	

From US20210285024
